For orientation: stoichiometry N means the number of molecules, sites or subunits per partner or assembly.

Consider two substances from publication PMC7527733.

Assay [1] has as its target Elizabethkingia anophelis strain AG1 CDC-like protein (CDCL) (Elizabethkingia anophelis strain AG1). Briefly: SDS-agarose gel electrophoresis (SDS-AGE).
Assay [2] addresses Elizabethkingia anophelis strain AG1 short CDC-like protein (CDCL^S) (Elizabethkingia anophelis strain AG1). Briefly: […]) in 20 mM HEPES (pH 7), 150 mM NaCl, […] (55:45) […].

In assay [1], “Elizabethkingia anophelis strain AG1 CDC-like protein (CDCL) (natural protein)” had a stoichiometry N of 2.
“Elizabethkingia anophelis strain AG1 short CDC-like protein (CDCL^S) (natural protein)”: the stoichiometry N in assay [2] was 28 monomers.
